Results on eight substances are retold here after US20140303356A1.

Test [1] concerns the target CH2-CH3 construct G4-K370E (human). The test is described as follows: native MS, monomer-dimer equilibrium of CH2-CH3 fragment.
In test [2] the target is CH2-CH3 construct G1-F405L (human). The test is described as follows: native MS, monomer-dimer equilibrium of CH2-CH3 fragment, homodimer.
Test [3] deals with IgG1Δhinge fragment of IgG1-7D8-K409R. Kind of test: native MS, CH2-CH3 fragment mixed with IgG1Δhinge fragment for 24 hours, heterodimer.
In test [4] the target is CH2-CH3 construct G1-K409R (human). Kind of test: native MS, monomer-dimer equilibrium of CH2-CH3 fragment, homodimer.
Test [5] has the same target. Kind of test: native MS, monomer-dimer equilibrium of CH2-CH3 fragment.
Test [6] addresses CH2-CH3 construct G4-K370Q (human). The description is as above.
Test [7] has as its target recombinant extracellular domain of EGFR (UniProt P00533). Kind of test: sandwich ELISA: EGFR extracellular domain coated, detection with anti-idiotype 2F2 SAB1.1.
Test [8] deals with CD20 on Daudi and Raji cells (UniProt P11836).
Test [9] has as its target CH2-CH3 construct G1-K370T (human). Kind of test: native MS, monomer-dimer equilibrium of CH2-CH3 fragment.
Test [10] addresses CH2-CH3 construct G4-S364D (human). The test is described as above.
Test [11] has as its target CD20 on Daudi and Raji cells (UniProt P11836). This is another data set of the same source.

Like-named read-outs stand apart in the source and are kept apart here.

In the case of CH2-CH3 construct G4-K370E, in [1], the Kd (commonly the equilibrium constant for the complex coming apart) amounted to 2 nM and the fold-difference (against wild type CH2-CH3 fragment) turned out to be 24 fold.
With CH2-CH3 construct G1-F405L, the Kd was determined as 850 nM in test [2] and 12 nM in test [3].
The substance CH2-CH3 construct G1-K409R displayed a Kd in test [4] of 110 nM. Besides, in test [5], the Kd is 110 nM and the fold-difference (against wild type CH2-CH3 fragment) stood at 0.03 fold.
Consider CH2-CH3 construct G4-K370Q, for which, in [6], the Kd stood at 11 nM and the fold-difference (against wild type CH2-CH3 fragment) is 4.3 fold.
In the case of “bispecific antibody generated by 2-MEA-induced Fab-arm exchange between IgG1-2F8-F405L and IgG1-7D8-K409R (from UniProt P01857 1-330)”, the half-maximal effective concentration (EC50 (read off the curve)) (usually the concentration giving half of the maximal effect) in [7] was 0.4 µg/mL; in test [8], 2 µg/mL.
As for CH2-CH3 construct G1-K370T, in test [9], the Kd came to 45 nM and the fold-difference (against wild type CH2-CH3 fragment) amounted to 0.07 fold.
Regarding CH2-CH3 construct G4-S364D, in test [10], the Kd is 47 nM and the fold-difference (against wild type CH2-CH3 fragment) amounted to 1.02 fold.
“IgG1-7D8 (from UniProt P01857 1-330) (antibody)”: the EC50 (read off the curve) in test [11] is 1 µg/mL; in [8] it was 0.5 µg/mL.
